According to patent US20240385191A1 (NORDIC BIOSCIENCE A S, published 2024):
No end group written: not given here. *: point of attachment. Biotin = O=C1N[C@H]2[C@H](CS[C@H]2CCCCC(=O)*)N1; KLH = keyhole limpet hemocyanin

T1: non-sense KLH-conjugated peptide IRQCPDRTYG-GGC-KLH
T1 peptide: IRQCPDRTYGGGC(KLH)

T2: non-sense coater peptide Biotin-SHAHQRTGGN
T2 construct: Control coater on the streptavidin plate
T2 peptide: Biotin-SHAHQRTGGN

B1: monoclonal antibody targeting PRO-C20 (antibody produced by the best performing clone) (antibody, V domains shown)
VH: QIQLMQSGPELKKPGETVKISCKASGYPFTDYSMHWVKQAPGKGLKWMGWINTETGEPTYADGFKGRFAFSLETSASTAYLKINNLKNDDTATYFCARGPYWGQGTLVTVSA
VL: DVLLTQTPLSLPVSLGDQASISCRSSQSIVHNNGKIYLEWFLQKPGQSPKALIQKVSNRFSGVPDRFSGSGSGTDFTLKISRVEAEDLGVYYCFQGSHVPYTFGGGTKLEIKR
notes: Mouse hybridoma antibody (Balb/C mice), purified on protein G and HRP-labelled in the final ELISA; also called HRP-labelled monoclonal antibody; the monoclonal antibody

Tests used:
[1] = biological target: B1; experiment: competitive ELISA: standard peptide against coated Biotin-… for the HRP-labelled antibody
Procedure: After washing five times with washing buffer (25 mM Tris, 50 mM NaCl, pH 7.2), 20 μL/well of sample was added in duplicates followed by 100 μL/well of 50 ng/mL HRP-labelled monoclonal antibody in assay buffer and incubated for 1 hour at 20° C. with shaking at 300 RPM. After a second washing cycle, 100 μL/well of TMB was added and incubated for 15 minutes in darkness at 20° C. with shaking at 300 RPM. The reaction was stopped by adding 100 μL/well of 1% H₂SO₄. Absorbance was measured at 450 nm with 650 nm as reference. […]
Assay variation was tested by running ten independent run of the assay using ten quality control samples in double determinations. […] Intra-assay variation was calculated as the mean coefficient of variance (CV %) between the double determinations on each of the ten runs. Inter-assay variation was calculated as the overall CV % for all determinations on the ten runs. Lower-and upper-limit of the measurement range (LLMR and ULMR) were determined as the concentrations that denotes the limits of the linear range of the assay. Lower limit of detection was calculated as the mean interpolated concentration of 21 blank samples, only containing assay buffer, plus three standard deviations. Upper limit of detection was calculated as the mean interpolated concentration of standard peptide corresponding to the highest concentration of the standard curve minus three standard deviations.

[2] = biological target: T1, non-sense KLH-conjugated peptide …; experiment: preliminary competitive ELISA for clone selection
[3] = biological target: T2, non-sense coater peptide …; experiment: ELISA with the non-sense biotinylated peptide as coater on a streptavidin plate
Procedure: Several optimizations were made to the ELISA including the choice of assay buffer, incubation time and temperature as well as concentrations of antibody and peptides. […] After washing five times with washing buffer (25 mM Tris, 50 mM NaCl, pH 7.2), 20 μL/well of sample was added in duplicates followed by 100 μL/well of 50 ng/mL HRP-labelled monoclonal antibody in assay buffer and incubated for 1 hour at 20° C. with shaking at 300 RPM. After a second washing cycle, 100 μL/well of TMB was added and incubated for 15 minutes in darkness at 20° C. with shaking at 300 RPM. The reaction was stopped by adding 100 μL/well of 1% H₂SO₄. Absorbance was measured at 450 nm with 650 nm as reference. To generate a standard curve, 20 μL/well of 50 ng/ml standard peptide ([…] (SEQ ID NO: 6)), serially diluted two-fold, was added to appropriate wells and a four-parametric logistic regression model was used to fit a curve. […]
Antibody specificity was evaluated by the inhibition of signal by two-fold serial dilutions of the standard peptide ([…] (SEQ ID NO: 6)), elongated peptide ([…] (SEQ ID NO: 2)), truncated peptide ([…] (SEQ ID NO: 3)) as well as a non-sense standard peptide ([…] (SEQ ID NO: 8)) and a non-sense coater peptide (Biotin-[…] (SEQ ID NO: 9)).

| IC50 [1] [ng/mL] | binding result [2] | binding result [3] | Binder |
| --- | --- | --- | --- |
| 5.59 |  |  | RHLEGRGEPGAVGQMGSPGQQGASTQGLWE (Synthetic 30-mer corresponding to the C-terminus of type XX collagen; also called 30 amino-acid variant) [standard peptide RHLEGRGEPGAVGQMGSPGQQGASTQGLWE] |
|  | no binding | no binding | B1 |
